Consider 2 substances from publication PMC9643438.

In one data set the target is Cys273 (UniProt position 273, KHPWICQRSTV). The experiment in a line: chemical modification (iodoacetamide alkylation) with mass spectrometry readout. To be noted: purified, reduced, native CaMKIIdelta; presence of Ca2+/calmodulin not stated.
The target of the next data set is Cys290 (UniProt position 290, QETVDCLKKFN). Described as above. As to conditions: purified, reduced, native CaMKIIdelta; presence of Ca2+/calmodulin not stated.

In general, pKa refers to the negative logarithm of the acid dissociation constant. On to “Calcium/calmodulin-dependent protein kinase II delta (CaMKIIdelta), 'Cys273' mutant (Homo sapiens; C7S;C290S;C481S)”, for which, in the data set with Cys273, the pKa came to 7.4.

For “Calcium/calmodulin-dependent protein kinase II delta (CaMKIIdelta), 'Cys290' mutant (Homo sapiens; C7S;C273S;C481S)”, the pKa with Cys290 was found to be 9.7.
